Data reported in publication PMC4486081 (Oncogene, 2015).

Target: Recombinant full length FAK (focal adhesion kinase), GST-tagged, phospho-Y397 (UniProt Q05397 1-1052, phosphotyrosine at 397)
Assay: co-IP

Sequence of Recombinant full length FAK (focal adhesion kinase), GST-tagged, phospho-Y397 (Q05397 whole entry): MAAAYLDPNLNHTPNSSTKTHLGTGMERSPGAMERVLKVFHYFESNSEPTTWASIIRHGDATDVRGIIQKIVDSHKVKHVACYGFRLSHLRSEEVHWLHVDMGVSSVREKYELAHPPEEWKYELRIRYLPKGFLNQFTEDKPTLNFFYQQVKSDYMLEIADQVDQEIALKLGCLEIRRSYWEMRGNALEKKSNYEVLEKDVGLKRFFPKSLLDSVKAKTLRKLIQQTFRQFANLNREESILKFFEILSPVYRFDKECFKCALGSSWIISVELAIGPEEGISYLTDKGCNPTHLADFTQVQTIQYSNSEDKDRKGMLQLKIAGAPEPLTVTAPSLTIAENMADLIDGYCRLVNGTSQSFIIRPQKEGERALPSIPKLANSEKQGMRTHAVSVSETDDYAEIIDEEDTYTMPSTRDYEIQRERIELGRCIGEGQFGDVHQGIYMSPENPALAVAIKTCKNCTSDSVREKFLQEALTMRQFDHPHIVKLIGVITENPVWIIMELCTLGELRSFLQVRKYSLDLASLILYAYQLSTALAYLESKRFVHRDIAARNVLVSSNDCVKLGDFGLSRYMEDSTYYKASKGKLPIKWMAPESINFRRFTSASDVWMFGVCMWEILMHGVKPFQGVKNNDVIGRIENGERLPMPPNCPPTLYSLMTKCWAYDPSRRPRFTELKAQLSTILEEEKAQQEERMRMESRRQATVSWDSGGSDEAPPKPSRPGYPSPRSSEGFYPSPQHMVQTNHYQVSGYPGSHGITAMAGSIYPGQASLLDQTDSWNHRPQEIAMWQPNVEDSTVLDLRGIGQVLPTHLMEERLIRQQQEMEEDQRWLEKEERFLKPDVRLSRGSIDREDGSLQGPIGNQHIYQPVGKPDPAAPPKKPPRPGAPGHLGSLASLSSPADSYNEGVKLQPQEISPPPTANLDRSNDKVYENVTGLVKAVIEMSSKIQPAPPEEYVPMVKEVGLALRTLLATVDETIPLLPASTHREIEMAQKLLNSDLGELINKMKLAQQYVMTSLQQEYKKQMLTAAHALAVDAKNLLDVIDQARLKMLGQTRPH

- binding result: binds
B1: Recombinant active PKM2 (pyruvate kinase M2), 1-531 aa with N-terminal His-tag (enzyme)
chain: not shown
